Reference: the nanobody polyreactivity screen of Harvey et al. (2022)

Assay: yeast display, Sf9 membrane polyspecificity reagent, FACS + sequencing; frameworks hold sequencing errors
Outline: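 In a synthetic yeast display library (Saccharomyces cerevisiae BJ5465), nanobody expression was induced with galactose for 36–48 hours. FACS gates were set low and high (top ~1%) using anti-HA fluorescence for expression and streptavidin fluorescence for binding of the Sf9 membrane reagent. Each polyreactivity label is drawn from the gate of origin.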

| Sequence | polyreactivity (PSR sort gate) |
| --- | --- |
| QVQLVESGGGLVQAGGSLRLSCAASGRTFTWYAMGWYRQAPGKERELVAAITNGGRRYADSVKGRFTISRDNAKTTVYLQMNSLKPEDTAVYYCATQPLTWSSYRWDWRAQFDHWGQGTQVTVSS | low polyreactivity |
| QLQLVESGGGLVQAGGSLRLSCAATGSTFYDNAMGWYRQAHGKERELVARIRWSGVRTYYADSVKGRFTISRDNAKNTVYLQMNSLKPEDTAVYYCAAGRPRPHWWSLDYYYWGQGTQVTVSS | low polyreactivity |
| QVQLVVSGGGLVQAGGRLRLSCAASGFTFRRNARGWYRQAPGKVWELVAGITSSGTSTYYADSVKGRFTISRDNAKNTVNLQMNSLKPEDTAVYYCNADTPRTGGYWGQGTQVTVSS | high polyreactivity |
| QVQLVESGGGLFQAGGSLRLSCSASGFIFRGYAMGWSRQAPGKERELVAAISTGGGRTYYADSVKGRFTISRDNAKNTVYLQMNSLKPEDTAVYYCNRLSYTQVLMDYWGQGTQVTVSS | high polyreactivity |
| QVQLVESGGGLVQAGGSLRLSCAASGFIFDNNAMGWYRQAPGKERELVATITSGGRTNYADSVKVRFTISRDNAKNTVYLQMNSLKPEDTAVYYCAAGYYLGSRRKTRDYWGQGTQVTVSS | low polyreactivity |
| QVQLVESGGGLVQAGGSLRISCAASGRTFWKYVMGWYRQAPGKEMELVAVISRPAGSTYYADSVKGRFTISRDNAKNTVYLQRNSLKPEDTAVYYCDKRPKNKPVLGDYDHWGQGTQVTVSS | low polyreactivity |
| QGQLVESGGGLVQAGGSLRLSCAASGFIFGTYAMGWYRQAPGKERELVAAITGSGGDTYYADSVKGRFTISRDNAKNTVYLQMNSLKPEDTAVYYCAAVRPPTPSRRREDYWGQGTQVTVSS | low polyreactivity |
| QVQLVESGVGLVQAGGSLRLICAATGYTFKRTAMRWSRQAPGKEREFVAAINIRGSSTYYADSVKGRFTISRDNPKNTVYLQMISLKPEDTAVYYCNAVTRYGYYWGEGTQVTVSS | high polyreactivity |
| QVQLVESGGGLVQAGGSLRLSCAASGRTFQYYAMGWYRQAPGKERELVAAISGIGTSTSYADSVKGRFTISRDNAKNTVYLQMNSLKPEDTAVYYCAARLLVPGSPWYTNYYWGQGTQVTVSS | low polyreactivity |
| QVQLVESGGGLVQAGGSLRLSCAASGRIFGYNAMGWYRQAPGKERDLVAAITTSGGSTYYADSVKGRFTISRDNAKNTVYLQMNSLKPEDTAVYYCARDSLQVFYPYASDDYWGQGTQVTVSS | low polyreactivity |
| QVQLVESGGGLVQAGGSLPLSCAASGATFTFYTMRSYRQAPGKERELVATISWRGGNTYYADSVKGRFTISRDNAKNTVYLQMNSLKPEDTAVYYCNAAPYRRGYGFREYDYWGQGTQVTVSS | high polyreactivity |
| QVQLVESGGGLVQAGGSLRLSCAASGFIFTPYTMGWYRQAPGKERELVAAITDGSSTYYADSVKGRFTISRDNAKNTVYLQMNSLKPEDTAVYYCNADGKPPYISWLYDYWGQGTQVTVSS | low polyreactivity |
| QVQLVESGGGLVQAGGSLRLSCSASGSTSFYNAIGWYRQAPGKERELVAAISWSTGSTYYADSVKGRFTISRDNAKNTVYLQMTSLKPEDTAVYYCAAETGKNVDFVWVLAYPRLDYWGQGTQVTVSS | low polyreactivity |
| QFQIVESGGGLVQAGGSLRLSCAASGSTFRSYAMGWYRQAPGKERELFARISYRTGSTYYADSVKRRFTISRDNAKNTVYLQMNSLKPEDTVVYYCAAGYIIQRSYFLYDSWGHGTQVTVSS | high polyreactivity |
| QVQLVDSGGGLVQAGVSLRLSCAASGSTFVFYAMGWYRQAPGKERELVAGISWSGGSTYYADSVKGRFTISRDNAKNTVYLQMNSLKPEDTAVYYCAARYTRYLGSGYYYCGQGTQVTVSS | high polyreactivity |
| QVKLVESGGGLVQAGGSLRLSCAASGFIFIDNTMGWYRQEPGKERELVAGINTSGASTHYADSVKGRFTISRDYAKNTVYLQMNSLKPEDTAVYYCNRGDLPKADYNDYSYDYDYRGQGTQVTVSS | low polyreactivity |
| QVQLVESGGGLVQAGGSLRLSCAASGITFFDYAMGWYRQAPGKERELFAAIDLSDGRTYYADSVKGRFTISRDNAKNTVYLQMNSLKPEDTAVYYCNADSFLSWVYRYVYYGSGYWGQGTQVTVSS | low polyreactivity |
| QVQLVESGGGLVQAGGSLRLSCAASGFTTNYYARGWYRQAPGKERELVAAITTGGSTHYADSVKGRFTISRDNAKNTVYLQMNSLKPEDTAVYYCAAGTNRQQQRYFHHGGYYQYNYWGQGTQVTVSS | low polyreactivity |
| QVQLVDSGGGLVQAGGSLRLSCAASGLIFSQYAMGWYRQAPGKEREFVARISSSGGSTYYADSVKGRFTISRDNAKNTVYLQMNSLKPEDTAVYYCAAVGGRNIRVWFRNKYDSWGQGTQVTVSS | low polyreactivity |
| QVQVVESGGGLVQAGGSLRLSCAASGSILGLYAMGWYRQAPGKERELVAAITYRGGRTDYADSVKGRFTISRDNAKNTVYLQMNCLKPEDTAVYYCAAGYLPRPRYSTSYLYYYWGQGTQVTVSS | high polyreactivity |
| QVQLEESGGGLVQAGGSLRLSCAASGLIFGWYAMGWYRQAPGKERELVAAISRRGGSTYYADSVKGRFTISRDNAKNSVFLQMNSLKPEDTAVYYCNADTYGDSYDYWGQGTQVTVSS | high polyreactivity |
| QVQLVESGGGLVQAGGSLRLSCAASGIIFRVYTMGWYRQAPGKERELVAGISSGDSTSYADSVKGRFTISRDNAKNTVYLQMNSLKPEDTEVYYCNADGKAGGDYDYWGQGTQVTVSS | low polyreactivity |

| Sequence | polyreactivity (PSR sort gate) |
| --- | --- |
| QVQLVESGGGLVQAGGSLRLSCAASGFTIRYYAMGWYRQAPGKERELVAAIRFSGGSTYYADSVKGRFTISRDNAKNTVYLQMNSLKPEDTAVYYCNARRRYGLDLGTFGYWGQGTQVTVSS | high polyreactivity |
| QVQLEESGGGLVQAGGSLRLSCAASGSTCGYYAMGWYRQAPGKERELVAVITRGGSTYYADSVKGRFTISRDNAMNTVYLQMNSLKPEDTAVYYCNARVQAVHYGYWGQGTQVPVSS | high polyreactivity |
| QVQLVESGGGLLQAGGSLRLSCAASGSIFESYAMGWYRQAPGKERELVAAITSSGDSTYYADSVKGRFTISRDNAKNTVYLQMNSLKPEDTAVYYCAKRVPTYISTAEWGSRYDYWGQGTQVTVSS | low polyreactivity |
| QVQHVESGGGLVQAGGSLRLSCAASGRTFFSYAMGLYRHAPGKERELVAAITYSGGRTYYADSVKGRFTISRDNAKNTVYLQMNSLKPEDTAVYYCAATHYREKIDYWGQGTQVTVSS | low polyreactivity |
| QVQLVESGGGLVQAGGSLRLSCAASGSTFQYNAMGWYRQAPGKEREFVAAISRTGTSTYYADSVKGRFTISRDNAKNTVYLQMNSLKPEDNAVYYCAAKSLRSGMGYWGQGTQVTVSS | high polyreactivity |
| QVQLVESGGGLVQAGGSLRLSSAASGFTFVNYAMGWYRQAPGKERELVAAITRGGSTYYADSVKGRFTISRDNAKNTVYLNMNSLIPEDTAVYYCSARYFYLFRPTEYYYWGQGTQVTVSS | high polyreactivity |
| QVQLVESGGGLVQAGGSLRLSCAASVLIFEAYAMGWYRQAPAKERELVATINKSGGSTYYADSVKGRFTISRDNAKNTVYLQMNSLKPEDTAVYFCAAFFLLPSPWPSYWCWNGDYWGQRTQVTVSS | low polyreactivity |
| QVQLVESGGRLVQAGGSLRLSCAASGFTYSPYAMGWYRQAPWKESELVAAITSSGGSTYYADSVKGRFTISRDNANNSVYLQMKSLKPEDTAVYYSAADYGYKYYWRYGYWGQGTQVTVSS | high polyreactivity |
| QVHLVESGGGLVQAGGSLRLSCAASGSIFVSNAMGWYRQAPGKERELVAAIRGVDSTYYADSVKGRFTISRDNAKNTVYLQMNSLKPEDTAVYYCATPGPGYTRYYYWGQGTQVTVSS | high polyreactivity |
| QVQLVESGGGLVQAGDSLRLSCAASGIILLSYAMGWYRQAPGKERELVAAITSGGGTNYADSVKGRFTISRDNAKNTVYLQMNSLKPEDTAVYYCAVGAYAGLYYYWGQGTQVTVSS | low polyreactivity |
| QVQLVESGGGLVQAGGSLRLSCAASGRTFFPYGMGWYRQAPGKERELVATISWSGGSTHYADSVKGRFTISRDNAKNTVYLQMNSLKPEDTAVYYCAAGNSLYWYNSGNYWGQGTQVTVSS | low polyreactivity |
| QVQLVESGVGLVQAGGSLRLSCAASGRTFSTNAMGWYIQAPGKERELVAAITSRGGSTYYADSVKGRFTISRDNAKNTVYLQMNSLKPEDTAVYYCAVDPLYSKTHYVTLGYYYWGQGTQVTVSS | low polyreactivity |
| QVQLVESGGGLVQAGGSLRLSCAASGIIFNTYVMGWYRQAPGKERELVAAISRRGGSTYYADSVKGRFTISRDNAKNTVYLQMNSLKPEDTAVYYCAADVLYQQAGSYYWGQGTQVTVSS | high polyreactivity |
| QVQLVESGGGLVQAGGSLRLSCAASGRTFGSNAMGWYRQAPGKERELVAAISVRGGRTYSADSVKGRFTISRDNAKNTVSLQMNSLKPEDTAVYYCAADPYPISKYWFYHAVDYDSWGQGTQVTVSS | high polyreactivity |
| QVQLVESGGGLVQAGGSLRLSCDASGRTFQYYAMGWYRQAPGKVRELVAGISSCGGSTYYADSVKGRFTISRDNAKNTVDLQMNSLKPEDTAVYYCNKARYFTGQRYDYWGQGTQVTVSS | high polyreactivity |
| QVQLVESGGGLVQAGGSLRLSCAASGFTFGHYVMGWSRQAPGKERELVAAITLSGGGTYYADSVKGRFTISRDNAKNTVYLQMNSLKPEDTAVYYCAAVGGEHAKKTYSRYKVDYWGQGTQVTVSS | low polyreactivity |
| QVQLGESGGGLVQAGGSLRLSCASSGRTFVVNAMGWYSQAPGKATEFDAAISYRGDSTYYAVSVKGRFTISRDNAKNTVYLQMNSLKPEATAVYYCAARVLGPGRRYYYWGQCTQVTVSS | high polyreactivity |
| QVQLVESGGGLVQAGGSLRLSCAASGFIYSNNAMGWYRQAPGKERELVAAISASGSSTYYADSVKGRFTISRDNAKNTVYLQMNSLKPEDTAVYYCAAKSRTYQSYYYWGQGTQVTVSS | high polyreactivity |
| QVQLVESGGGLVQAGGSLRLSCAASGSTSLSYVKGWYRQAPGKERELVATITSSGGSTYYADSVKGRFTISRDNAKNTDYLQMNSLKQEDPAVYYCNARSYIYPFSPTSYYRYYWGQGTQVTGSS | high polyreactivity |
| QVQLVESGGGFVQAGGSLRLSCAASGIIFTLYTMGWYIQAPGKERELVASISTRGGSTYYADSVKGRFTISRDYAKNTVYLQMNSLKPEDTAVYYCAAQGGYPVWRYYYWGQGTQVTVSS | high polyreactivity |
| QVQLVESGGGLVQAGGSLRLSCAASGLIFYNYAMGWYRQAPGKERELVAAISRSGGRTYYADSVKGRFTISRDNAKNTVYLQMNSLKPEDTAVYYCNAVHVSIEGYYWGQGTQVTVSS | high polyreactivity |
